Results reported in patent US12698507B2, “Methods and compositions for conferring and/or enhancing herbicide tolerance using protoporphyrinogen IX oxidase of various cyanobacteria or variant thereof” (FarmHannong Co., Ltd., priority 2019, dated 2026).

B1: CyPPO19 L327T + F360T: variant of CyPPO19 PPO protein (SEQ ID NO: 1) (protein)
chain: MSEVDVAIVGGGLSGLSLAWRLQQSAPQYSVVLLEASDRLGGNITTQTAEGFVWELGPNSFAPTPALLQLIAEVGLQSELIRGDRHLPRYIYWRGQLYPLQPTRPLALATSNLLSPWGKVRAALGALGFVPPYLGSGDESVNSFFRRHLGQEVAERLVAPFVSGVYAGDPQQLSAAAAFRRIAQLEKLGGGLIAGALHLRRQQAPKPKPPTSVQMRPGELGSFKEGLAALPRAIAQQLKAPIHLQTPVQEITPDPKGGYLLRSGEQTWRARSVVLATPAYQTAELVAPFQPAIARVLATIPYPTVACVVLAYPAGLGRSVRPGFGVTIPRSQGIRTLGTIWSSCLFPQRTPAGWQVFTSTIGGATDPDLASLSEEAIVQQVQQDLNRLLDLPAAKARLLGMKVWRRAIPQYMVGYPEQWQQVTHALSQTPGLFLCSNYAEGVALGDRVEHGNRTAAAVAAYLSGGQP
modifications: Synthetic_PPO of Thermosynechococcus elongatus PKUAC-SCTE542 (comprising GenBank No. CP032152.1)
B2: CyPPO19 I408W + F360I: variant of CyPPO19 PPO protein (SEQ ID NO: 1) (protein)
chain: MSEVDVAIVGGGLSGLSLAWRLQQSAPQYSVVLLEASDRLGGNITTQTAEGFVWELGPNSFAPTPALLQLIAEVGLQSELIRGDRHLPRYIYWRGQLYPLQPTRPLALATSNLLSPWGKVRAALGALGFVPPYLGSGDESVNSFFRRHLGQEVAERLVAPFVSGVYAGDPQQLSAAAAFRRIAQLEKLGGGLIAGALHLRRQQAPKPKPPTSVQMRPGELGSFKEGLAALPRAIAQQLKAPIHLQTPVQEITPDPKGGYLLRSGEQTWRARSVVLATPAYQTAELVAPFQPAIARVLATIPYPTVACVVLAYPAGLGRSVRPGFGVLIPRSQGIRTLGTIWSSCLFPQRTPAGWQVFTSIIGGATDPDLASLSEEAIVQQVQQDLNRLLDLPAAKARLLGMKVWRRAWPQYMVGYPEQWQQVTHALSQTPGLFLCSNYAEGVALGDRVEHGNRTAAAVAAYLSGGQP
modifications: Synthetic_PPO of Thermosynechococcus elongatus PKUAC-SCTE542 (comprising GenBank No. CP032152.1)
B3: CyPPO19 I408R + F360M: variant of CyPPO19 PPO protein (SEQ ID NO: 1) (protein)
chain: MSEVDVAIVGGGLSGLSLAWRLQQSAPQYSVVLLEASDRLGGNITTQTAEGFVWELGPNSFAPTPALLQLIAEVGLQSELIRGDRHLPRYIYWRGQLYPLQPTRPLALATSNLLSPWGKVRAALGALGFVPPYLGSGDESVNSFFRRHLGQEVAERLVAPFVSGVYAGDPQQLSAAAAFRRIAQLEKLGGGLIAGALHLRRQQAPKPKPPTSVQMRPGELGSFKEGLAALPRAIAQQLKAPIHLQTPVQEITPDPKGGYLLRSGEQTWRARSVVLATPAYQTAELVAPFQPAIARVLATIPYPTVACVVLAYPAGLGRSVRPGFGVLIPRSQGIRTLGTIWSSCLFPQRTPAGWQVFTSMIGGATDPDLASLSEEAIVQQVQQDLNRLLDLPAAKARLLGMKVWRRARPQYMVGYPEQWQQVTHALSQTPGLFLCSNYAEGVALGDRVEHGNRTAAAVAAYLSGGQP
modifications: Synthetic_PPO of Thermosynechococcus elongatus PKUAC-SCTE542 (comprising GenBank No. CP032152.1)
B4: CyPPO19 I408W + F360V: variant of CyPPO19 PPO protein (SEQ ID NO: 1) (protein)
chain: MSEVDVAIVGGGLSGLSLAWRLQQSAPQYSVVLLEASDRLGGNITTQTAEGFVWELGPNSFAPTPALLQLIAEVGLQSELIRGDRHLPRYIYWRGQLYPLQPTRPLALATSNLLSPWGKVRAALGALGFVPPYLGSGDESVNSFFRRHLGQEVAERLVAPFVSGVYAGDPQQLSAAAAFRRIAQLEKLGGGLIAGALHLRRQQAPKPKPPTSVQMRPGELGSFKEGLAALPRAIAQQLKAPIHLQTPVQEITPDPKGGYLLRSGEQTWRARSVVLATPAYQTAELVAPFQPAIARVLATIPYPTVACVVLAYPAGLGRSVRPGFGVLIPRSQGIRTLGTIWSSCLFPQRTPAGWQVFTSVIGGATDPDLASLSEEAIVQQVQQDLNRLLDLPAAKARLLGMKVWRRAWPQYMVGYPEQWQQVTHALSQTPGLFLCSNYAEGVALGDRVEHGNRTAAAVAAYLSGGQP
modifications: Synthetic_PPO of Thermosynechococcus elongatus PKUAC-SCTE542 (comprising GenBank No. CP032152.1)
B5: CyPPO19 I408R + F360L: variant of CyPPO19 PPO protein (SEQ ID NO: 1) (protein)
chain: MSEVDVAIVGGGLSGLSLAWRLQQSAPQYSVVLLEASDRLGGNITTQTAEGFVWELGPNSFAPTPALLQLIAEVGLQSELIRGDRHLPRYIYWRGQLYPLQPTRPLALATSNLLSPWGKVRAALGALGFVPPYLGSGDESVNSFFRRHLGQEVAERLVAPFVSGVYAGDPQQLSAAAAFRRIAQLEKLGGGLIAGALHLRRQQAPKPKPPTSVQMRPGELGSFKEGLAALPRAIAQQLKAPIHLQTPVQEITPDPKGGYLLRSGEQTWRARSVVLATPAYQTAELVAPFQPAIARVLATIPYPTVACVVLAYPAGLGRSVRPGFGVLIPRSQGIRTLGTIWSSCLFPQRTPAGWQVFTSLIGGATDPDLASLSEEAIVQQVQQDLNRLLDLPAAKARLLGMKVWRRARPQYMVGYPEQWQQVTHALSQTPGLFLCSNYAEGVALGDRVEHGNRTAAAVAAYLSGGQP
modifications: Synthetic_PPO of Thermosynechococcus elongatus PKUAC-SCTE542 (comprising GenBank No. CP032152.1)
B6: CyPPO19 I408W + F360T: variant of CyPPO19 PPO protein (SEQ ID NO: 1) (protein)
chain: MSEVDVAIVGGGLSGLSLAWRLQQSAPQYSVVLLEASDRLGGNITTQTAEGFVWELGPNSFAPTPALLQLIAEVGLQSELIRGDRHLPRYIYWRGQLYPLQPTRPLALATSNLLSPWGKVRAALGALGFVPPYLGSGDESVNSFFRRHLGQEVAERLVAPFVSGVYAGDPQQLSAAAAFRRIAQLEKLGGGLIAGALHLRRQQAPKPKPPTSVQMRPGELGSFKEGLAALPRAIAQQLKAPIHLQTPVQEITPDPKGGYLLRSGEQTWRARSVVLATPAYQTAELVAPFQPAIARVLATIPYPTVACVVLAYPAGLGRSVRPGFGVLIPRSQGIRTLGTIWSSCLFPQRTPAGWQVFTSTIGGATDPDLASLSEEAIVQQVQQDLNRLLDLPAAKARLLGMKVWRRAWPQYMVGYPEQWQQVTHALSQTPGLFLCSNYAEGVALGDRVEHGNRTAAAVAAYLSGGQP
modifications: Synthetic_PPO of Thermosynechococcus elongatus PKUAC-SCTE542 (comprising GenBank No. CP032152.1)

Test system: PPO-deficient BT3 E. coli (ΔPPO)
Assay: PPO-inhibiting herbicide tolerance test of PPO variants in E. coli (growth on herbicide-containing LB agar)
Type: cell-based
Settings: CyPPO19 variants in BT3 (ΔPPO) E. coli; LB agar with 0 to 2,000 μM herbicide, 37° C., dark, 16-20 hours
In short: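 Tolerance was scored against wild-type enzyme: '−' for equal growth, one '+' per 10-fold gain, up to '+++++'. ΔPPO BT3 cells carrying variant plasmids, spotted as a 10-fold dilution series from OD600=0.5, grew 16-20 h at 37° C. in the dark on ampicillin LB agar containing 0 to 2,000 μM herbicide.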

Molecule	tolerance level relative to wild type, Carfentrazone	tolerance level relative to wild type, Flumioxazin	tolerance level relative to wild type, Fomesafen	tolerance level relative to wild type, Oxyfluorfen	tolerance level relative to wild type, Saflufenacil	tolerance level relative to wild type, Sulfentrazone	tolerance level relative to wild type, Tiafenacil
B1	+ (‘+’ per each 10-fold resistance)	+ (‘+’ per each 10-fold resistance)	+ (‘+’ per each 10-fold resistance)	+ (‘+’ per each 10-fold resistance)	+ (‘+’ per each 10-fold resistance)	+ (‘+’ per each 10-fold resistance)	++ (‘+’ per each 10-fold resistance)
B2	+ (‘+’ per each 10-fold resistance)	+++ (‘+’ per each 10-fold resistance)	+++ (‘+’ per each 10-fold resistance)	++ (‘+’ per each 10-fold resistance)	+++ (‘+’ per each 10-fold resistance)	+++ (‘+’ per each 10-fold resistance)	++++ (‘+’ per each 10-fold resistance)
B3	+ (‘+’ per each 10-fold resistance)	++ (‘+’ per each 10-fold resistance)	+ (‘+’ per each 10-fold resistance)	+ (‘+’ per each 10-fold resistance)	++ (‘+’ per each 10-fold resistance)	+ (‘+’ per each 10-fold resistance)	+++ (‘+’ per each 10-fold resistance)
B4	+ (‘+’ per each 10-fold resistance)	++++ (‘+’ per each 10-fold resistance)	+++ (‘+’ per each 10-fold resistance)	++ (‘+’ per each 10-fold resistance)	+++ (‘+’ per each 10-fold resistance)	+++ (‘+’ per each 10-fold resistance)	++++ (‘+’ per each 10-fold resistance)
B5	+ (‘+’ per each 10-fold resistance)	+ (‘+’ per each 10-fold resistance)	+ (‘+’ per each 10-fold resistance)	+ (‘+’ per each 10-fold resistance)	+ (‘+’ per each 10-fold resistance)	+ (‘+’ per each 10-fold resistance)	++ (‘+’ per each 10-fold resistance)
B6	+ (‘+’ per each 10-fold resistance)	+ (‘+’ per each 10-fold resistance)	+ (‘+’ per each 10-fold resistance)	+ (‘+’ per each 10-fold resistance)	++ (‘+’ per each 10-fold resistance)	+ (‘+’ per each 10-fold resistance)	++ (‘+’ per each 10-fold resistance)
